This data set in a line: protein stability index of a GFP-peptide fusion (GPS, HEK-293T) (PSI 1-6); higher = more stable.
Setting [1] is: treatment: DMSO, c terminus: a fixed tail appended.
The mark [2] stands for this setting: treatment: MLN4924 1 uM, 8 h, c terminus: a fixed tail appended.

These results are taken from the supplement of paper PMC10567573.

± gives the standard deviation.
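Also: 24-mer peptide tiles fused after GFP, lentivirally expressed, FACS-sorted into six equal bins by GFP/DsRed ratio, decoded by Illumina sequencing, PSI is the read-weighted mean bin number.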

For the sequence PDLNTLLWEAEDRQNVPRKVPNHY [CPXM2], the protein stability index turned out to be 3.87 ± 0.27 under setting [1] and 3.86 ± 0.092 under setting [2].
PDNWFCYPCIPNHELVWAKMKGFG [ZMYND11]: the protein stability index came to 2.43 ± 0.37 under setting [1] and 2.12 ± 0.18 under setting [2].
On to PDQVAPFTFLQPLPLSPGVLSSTP [ATF4], for which the protein stability index was found to be 3.44 ± 0.33 under setting [1] and 3.74 ± 0.19 under setting [2].
For the sequence PDSELSPCIPPGFRNLVADRVLNY [SPAG8], the protein stability index is, setting by setting: under setting [1], 3.18 ± 0.23; under setting [2], 3.34 ± 0.33.
PDTRHPCSLGSSLVADYSDSESE [YJU2B]: the protein stability index is, setting by setting: (treatment: DMSO, c terminus: native) 5.39 ± 0.1; (treatment: MLN4924 1 uM, 8 h, c terminus: native) 5.29 ± 0.13.
As for PECGLAKKPPEESTCFERPCFKWY [ADAMTSL2], the protein stability index is, setting by setting: under setting [1], 3.4 ± 0.42; under setting [2], 2.96 ± 0.34.
For PEGNILRDRFKSFQRRNMIEPRER [NOP53] the same measures were 4.25 ± 0.31 and 4.29 ± 0.36.
Consider PESLTKPDQVAPFTFLQPLPLSPG [ATF4], for which the protein stability index was determined as 4.21 ± 0.3 under setting [1] and 4.2 ± 0.12 under setting [2].
In the same order, the values of PFSSSSPENVEDSGLDSPSHAAPG [FCHO1] are 5.5 ± 0.19 and 5.4 ± 0.39.
Consider PGCGYFCTAGNFMECQPESSISHR [EHMT1], for which the protein stability index by setting is: under setting [1], 2.64 ± 0.15; under setting [2], 2.61 ± 0.53.
As to PGEKSHWGEGLHQLREALKILAER [EMID1], the protein stability index under setting [2] was 2.13 ± 0.33.
On to PGFLSTAEEETLSRELEPELRRRR [ALKBH7], for which the protein stability index amounted to 5.12 ± 0.23 under setting [1] and 5.28 ± 0.3 under setting [2].
With PGGLTLEEHSLEQVQSMVVGEVLK [SPDEF], the protein stability index under setting [1] was determined as 3.34 ± 0.28 and the protein stability index under setting [2] amounted to 3.53 ± 0.38.
For PGKLFIGGLNTETNEKALEAVFGK [RBMX] the same measures were 3.54 ± 0.35 and 3.69 ± 0.38.
For PGNRTCTGTSKRYQLCRVQECPPD [ADAMTSL2] the same measures were 3.61 ± 0.32 and 3.69 ± 0.045.
Regarding PGPHSAKQDSYEQGDSSQQSLKGH [ZC2HC1C], the protein stability index under setting [1] is 5.24 ± 0.28 and the protein stability index under setting [2] is 5.52 ± 0.082.
For PGSIIGPQQHFLEEKQASLWVQGD [CDC14A], the protein stability index by setting is: under setting [1], 4.04 ± 0.37; under setting [2], 4.14 ± 0.4.
In the same order, the values of PHKGLNLHPLLSGRLGRWLRSTRF [PCDHGC5] are 2.35 ± 0.23 and 2.13 ± 0.28.
In the same order, the values of PHTVLDRQLLCLIDYYESKIRKIH [CEP70] are 2.46 ± 0.34 and 2.28 ± 0.19.
Turning to PHYELCTLRGTGATADFADVADDF [NETO1], the protein stability index runs as follows: under setting [1], 4.69 ± 0.1; under setting [2], 4.59 ± 0.25.
For PICSANHKESKMTIFEKENFIGRQ [CRYBA1] the same measures were 3.34 ± 0.27 and 3.46 ± 0.18.
For PILKVQYHPRDQNKVLVCPMKSAP [RBBP5] the same measures were 2.99 ± 0.17 and 3.13 ± 0.14.
For PIRNRAFYMEEGVPYCERDYEKMF [PDLIM7] the same measures were 3.3 ± 0.31 and 3.43 ± 0.34.
Turning to PKCSCGQLAAVHLSKSRTDYQPTQ [RNF180], the protein stability index runs as follows: under setting [1], 2.55 ± 0.17; under setting [2], 2.63 ± 0.35.
PKGSKGKEKDSPFKPKLYKGDRGL [RBBP5]: the protein stability index runs as follows: under setting [1], 3.86 ± 0.89; under setting [2], 4.34 ± 0.46.
For PKTVPSHVFSELWDLSEAWMQANY [ELOA2] the same measures were 2.6 ± 0.26 and 2.56 ± 0.41.
Take PLCNFNIIESFTELARIVLLRHRM [RAB40A]: the protein stability index runs as follows: under setting [1], 2.6 ± 0.21; under setting [2], 2.87 ± 0.79.
In the same order, the values of PLCNFNVIESFTELSRIVLMRHGM [RAB40C] are 2.94 ± 0.45 and 2.73 ± 0.41.
Consider PLESIDHSVTGFLCEPDPVHFSEA [ALG2], for which the protein stability index is, setting by setting: under setting [1], 4.48 ± 0.15; under setting [2], 4.48 ± 0.025.
Turning to PLHELITMNRRVCVLMLLAAWIGG [OR4A15], the protein stability index reads like this: under setting [1], 2.84 ± 0.27; under setting [2], 2.92 ± 0.26.
As to PLRAAHRRFNFDTDRPLLSTLEES [SMG5], the protein stability index amounted to 3.94 ± 0.14 under setting [1] and 3.94 ± 0.18 under setting [2].
For PLRLFLIIANTMAFQNDVYEWARD [SCD] the same measures were 2.75 ± 0.61 and 2.87 ± 0.61.
Regarding PLRNDVDKRGETTSASLLNAGLSH [SLC2A12], the protein stability index runs as follows: under setting [1], 4.55 ± 0.32; under setting [2], 4.66 ± 0.22.
In the same order, the values of PLRVDLILENTSKVPAPKDVLAHQ [NOP53] are 3.28 ± 0.036 and 3.5 ± 0.29.
For PLSPAFFGEDGIFRHDRLRFRDFV [PBXIP1] the same measures were 2.77 ± 0.16 and 2.91 ± 0.39.
Regarding PLYTLIDVLKYSYVRLVCKDVRAP [ZSWIM9], the protein stability index by setting is: under setting [1], 2.84 ± 0.25; under setting [2], 3.02 ± 0.63.
PPLEDFEVLDGVEDAEGEEEEEEE [FKBP8] registered a protein stability index under setting [1] of 5.69 ± 0.27 and a protein stability index under setting [2] of 5.61 ± 0.34.
Consider PPTQLEVNLEEIPGEGLLISWAFT [C2CD2L], for which the protein stability index under setting [1] was 2.75 ± 0.41 and the protein stability index under setting [2] stood at 3.01 ± 0.5.
On to PPVMPGMPPGLHHQRKYTQSFCGE [ZNF207], for which the protein stability index reads like this: under setting [1], 3.76 ± 0.15; under setting [2], 3.75 ± 0.14.
Consider PQLSPGSGTPQAGTPSPSRSRDSN [RTN2], for which the protein stability index reads like this: under setting [1], 5.2 ± 0.14; under setting [2], 5.27 ± 0.18.
For PQQQHHKAKRNRTCRPPSSSESSS [ANKRD17] the same measures were 4.86 ± 0.16 and 4.92 ± 0.29.
In the case of PRAGKEESGVSVSNSQPTNESHSI [SLC29A1], the protein stability index is 5.33 ± 0.25 under setting [1] and 5.26 ± 0.27 under setting [2].
For PRIVEMKKGSNGYGFYLRAGSEQK [PDZK1] the same measures were 3.53 ± 0.36 and 3.65 ± 0.54.
In the same order, the values of PRPQSEESWDEEDKRNYPSLELDK [CHGB] are 5.52 ± 0.25 and 5.44 ± 0.25.
In the same order, the values of PSDFFIGAVIEVFGHRFIILDTDE [EFHC1] are 2.32 ± 0.43 and 2.31 ± 0.36.
Regarding PSKTYPAFLEPDETFIVPDSFLVA [SPSB1], the protein stability index by setting is: under setting [1], 2.39 ± 0.33; under setting [2], 2.45 ± 0.15.
Regarding PSLEDISCNTWPSMPSYSSCTVTT [TBX5], the protein stability index is, setting by setting: under setting [1], 3.18 ± 0.21; under setting [2], 3.41 ± 0.24.
With PSRKYISTKAIPEKYGAVREVILK [ZBED1], the protein stability index runs as follows: under setting [1], 2.87 ± 0.18; under setting [2], 2.92 ± 0.34.
In the same order, the values of PTPAKRRSSALWSEMLDITMKESL [NET1] are 2.71 ± 0.5 and 3.15 ± 0.48.
In the same order, the values of PTPTSLEVSSPPDTTEEVDHKPKL [PDZK1] are 5.51 ± 0.18 and 5.54 ± 0.38.
In the same order, the values of PVCSALLDPVLQAPGTGPAQTELL [FANCE] are 4.2 ± 0.12 and 4.37 ± 0.12.
Consider PVLGSSSGAGHGSGSGSGPGCGSV [SPAG8], for which the protein stability index is, setting by setting: under setting [1], 4.8 ± 0.36; under setting [2], 4.92 ± 0.49.
For PVPPPSYFATFYSCTPRMNRRMVG [FAM189A2] the same measures were 2.43 ± 0.28 and 2.43 ± 0.33.
For the sequence PVTERQIEREHLIQLRRWQETRGE [TBC1D10A], the protein stability index under setting [1] amounted to 4.25 ± 0.14 and the protein stability index under setting [2] turned out to be 4.33 ± 0.18.
Take PVVKALFGASAAGGLSPVTNLTVT [CDC25A]: the protein stability index under setting [1] is 2.61 ± 0.24 and the protein stability index under setting [2] stood at 2.65 ± 0.2.
Regarding PYTRSIQILKDTKSITSAMNELQH [TPH1], the protein stability index runs as follows: under setting [1], 2.61 ± 0.22; under setting [2], 2.71 ± 0.16.
In the same order, the values of QAQDEVEQERRLSEARLSQRDLSP [FCHSD1] are 5.46 ± 0.28 and 5.31 ± 0.24.
With QARAELTAQHQRRLAAIAQEKDQE [FBF1], the protein stability index is, setting by setting: under setting [1], 5.43 ± 0.23; under setting [2], 5.2 ± 0.49.
Regarding QAVSAPGILNRPPAPTATVPAPQP [ZNF207], the protein stability index runs as follows: under setting [1], 4.76 ± 0.17; under setting [2], 4.91 ± 0.17.
In the same order, the values of QDSPLDLTVRKSQSEPSEQDGVLD [LCOR] are 5.42 ± 0.32 and 5.35 ± 0.37.
As for QELIETNQQLRNELQLEQSRAANQ [CEP70], the protein stability index runs as follows: under setting [1], 5.122 ± 0.01; under setting [2], 5.05 ± 0.26.
For QEYFERHRWPPVWYLKEEDHYQRV [RHOBTB1] the same measures were 3.08 ± 0.24 and 3.08 ± 0.1.
For QFALTNGDPLNCHSYLSGYISLLL [NR2F2] the same measures were 2.57 ± 0.57 and 2.28 ± 0.3.
Take QFRVIGPRHPIRALVGDEVELPCR [MOG]: the protein stability index was 3.63 ± 0.31 under setting [1] and 3.64 ± 0.45 under setting [2].
Regarding QFSDEVEPATPEEGEPATQRQDPA [GAGE1], the protein stability index under setting [1] came to 5.6 ± 0.11 and the protein stability index under setting [2] worked out at 5.57 ± 0.096.
For QGDPKGEMAATPAGFAQLTHLLMG [HDAC6] the same measures were 3.1 ± 0.16 and 3.06 ± 0.14.
The sequence QGGSLPSEEKGHPQEESEESNVSM [CHGB] displayed a protein stability index under setting [1] of 5.59 ± 0.24 and a protein stability index under setting [2] of 5.53 ± 0.25.
In the same order, the values of QGPGGDEDDDEEDTDKLLNSASDP [PSD2] are 5.59 ± 0.26 and 5.54 ± 0.21.
For QIITSLVFHLPFYSSNQLHHFFCD [OR10K2] the same measures were 2.8 ± 0.094 and 3.02 ± 0.21.
Turning to QKEVLPSMRKIVATWMLEVCEEQK [CCND1], the protein stability index stood at 3.01 ± 0.27 under setting [1] and 3 ± 0.3 under setting [2].
Take QKIQFKRETASLKLLPHQPRIVEM [PDZK1]: the protein stability index under setting [1] was found to be 2.54 ± 0.39.
For the sequence QKTSRSSSIPCSGSLDGRELSRQV [PPEF2], the protein stability index reads like this: under setting [1], 4.32 ± 0.23; under setting [2], 4.48 ± 0.42.
As for QLGRALTAHLYSLLQTQHALGDAF [ARFIP2], the protein stability index was 3.25 ± 0.2 under setting [1] and 3.47 ± 0.57 under setting [2].
